Results on 1 molecule are retold here after US20110207917A1 (PATRYS, published 2011).

The target of this assay is T1, CD55 antigen (coated on ELISA plate) (UniProt P08174 35-353, limits assumed).
T1 sequence (looked up): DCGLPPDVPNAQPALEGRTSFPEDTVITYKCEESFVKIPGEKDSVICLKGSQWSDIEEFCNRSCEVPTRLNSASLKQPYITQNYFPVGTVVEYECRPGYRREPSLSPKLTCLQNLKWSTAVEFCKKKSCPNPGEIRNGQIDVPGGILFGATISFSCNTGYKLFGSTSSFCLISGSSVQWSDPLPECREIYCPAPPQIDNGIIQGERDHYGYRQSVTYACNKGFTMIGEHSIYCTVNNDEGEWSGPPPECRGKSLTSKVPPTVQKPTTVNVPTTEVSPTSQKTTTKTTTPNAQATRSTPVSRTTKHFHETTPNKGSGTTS
Kind of assay: ELISA on coated CD55 antigen (0.5 µg/well). As to the method: In brief, CD55 antigen (0.5 μg/well) was coated in a volume of 50 μl/well. The primary antibody was incubated at 12 μg/ml (0.6 μg/well). Buffer was pH6.5 and for the dilution buffer used was High salt pH8.0.

B1: SAM-6 antibody (human IgM produced by hybridoma deposited as DSM ACC2903) (antibody, V domains shown)
VH: GGGVVQPGRSLRLSCAASGFTFSSYAMHWVRQAPGKGLEWVAVISYDGSNKYYADSVKGRFTISRDNSKNTLYLQMNSLRAEDTAVYYCARDRLAVAGRPFDYWGQGTLVTVSS
VL: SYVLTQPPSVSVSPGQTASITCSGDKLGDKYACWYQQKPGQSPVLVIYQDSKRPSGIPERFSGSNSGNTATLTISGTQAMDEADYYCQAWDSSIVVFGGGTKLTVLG
notes: Human IgM, lambda light chain, purified from hybridoma supernatant; CDR-H3 was not observed; also called SAM-6 HAB; SAM-6 HAB IgM
Consider B1, for which the binding result was “no binding (tested: 12 µg/ml)”.
